Here are results for 1 substance from doi:10.1101/2025.08.28.672897.

The target of the assay is μ opioid receptor (MOR) (human) (UniProt P35372).
Chain of UniProt P35372 (P35372 whole entry): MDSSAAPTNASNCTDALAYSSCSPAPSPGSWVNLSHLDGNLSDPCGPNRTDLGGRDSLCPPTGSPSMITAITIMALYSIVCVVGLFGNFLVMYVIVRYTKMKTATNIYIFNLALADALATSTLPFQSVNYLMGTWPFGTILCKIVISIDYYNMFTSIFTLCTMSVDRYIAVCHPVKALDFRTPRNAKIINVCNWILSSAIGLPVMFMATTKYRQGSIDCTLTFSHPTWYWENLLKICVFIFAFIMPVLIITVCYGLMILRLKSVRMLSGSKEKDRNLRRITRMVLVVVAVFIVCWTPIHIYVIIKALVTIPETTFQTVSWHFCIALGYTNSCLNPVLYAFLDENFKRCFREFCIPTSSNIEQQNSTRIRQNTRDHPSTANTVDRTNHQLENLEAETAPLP

For the substance DAMGO (peptide), the TRUPATH BRET2, Ggust activation, 0 mM sodium, pEC50 came to 10.2 pEC50; the TRUPATH BRET2, Ggust activation, 140 mM sodium, pEC50 turned out to be 9.57 pEC50; the TRUPATH BRET2, Gi1 activation, 0 mM sodium, pEC50 is 9.01 pEC50; the TRUPATH BRET2, Gi1 activation, 140 mM sodium, pEC50 was 7.55 pEC50. This substance registered a TRUPATH BRET2, Gi2 activation, 0 mM sodium, pEC50 of 9.97 pEC50; a TRUPATH BRET2, Gi2 activation, 140 mM sodium, pEC50 of 9.17 pEC50; a TRUPATH BRET2, Gi3 activation, 0 mM sodium, pEC50 of 9.43 pEC50; a TRUPATH BRET2, Gi3 activation, 140 mM sodium, pEC50 of 8.12 pEC50. The substance also came in with a TRUPATH BRET2, GoA activation, 0 mM sodium, pEC50 of 9.82 pEC50; a TRUPATH BRET2, GoA activation, 140 mM sodium, pEC50 of 9.08 pEC50; a TRUPATH BRET2, GoB activation, 0 mM sodium, pEC50 of 9.77 pEC50; a TRUPATH BRET2, GoB activation, 140 mM sodium, pEC50 of 8.52 pEC50. In addition, the TRUPATH BRET2, Gz activation, 0 mM sodium, pEC50 is 9.66 pEC50 and the TRUPATH BRET2, Gz activation, 140 mM sodium, pEC50 is 8.82 pEC50.
